B1: Ist1 (natural protein, S. cerevisiae, UniProt P53843 1-298, looked up)
chain: MAPSMIPFTIKLKTCLKMCIQRLRYAQEKQQAIAKQSRRQVAQLLLTNKEQKAHYRVETLIHDDIHIELLEILELYCELLLARVQVINDISTEEQLVKEHMDDGINEAIRSLIYAILFVDEVKELSQLKDLMAWKINVEFVNGVIADHIDVPEKIIKKCSPSVPKEELVDLYLKEIAKTYDVPYSKLENSLSSSSSNISSDFSDPSGDIEDNDEEKPILALDNDDNDNADAKHPITVKKPRQNSENIKNELKIPKDIKKEVIEKKQSEKKTTKRKTKKEQENDELDELKKRFDALRRK

Where two headings read alike, the source gives them in different places.

Common to all, as to assay: pull-down
The target of assay [1] is T1, Vps4^E233Q (S. cerevisiae, UniProt P52917 1-437, E233Q).
T1 sequence (looked up): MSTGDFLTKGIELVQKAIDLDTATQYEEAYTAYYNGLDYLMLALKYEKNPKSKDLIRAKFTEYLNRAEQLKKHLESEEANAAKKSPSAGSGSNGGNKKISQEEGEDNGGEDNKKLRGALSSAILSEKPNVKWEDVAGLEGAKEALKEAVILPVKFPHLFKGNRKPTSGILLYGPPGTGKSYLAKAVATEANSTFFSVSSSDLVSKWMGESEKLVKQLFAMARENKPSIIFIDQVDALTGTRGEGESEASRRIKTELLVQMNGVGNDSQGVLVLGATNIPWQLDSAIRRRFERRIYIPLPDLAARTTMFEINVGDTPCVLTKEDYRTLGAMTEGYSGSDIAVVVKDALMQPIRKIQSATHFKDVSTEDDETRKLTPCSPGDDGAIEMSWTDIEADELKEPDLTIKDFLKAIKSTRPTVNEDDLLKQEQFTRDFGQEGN

The target in assay [2] is T1, Vps4^E233Q. This is another data set of the same source.
The assay “Ist1” concerns the target B1.

For B1, the binding result with Vps4^E233Q [1] is reported as “binds”.

B2: GST-Vps20(C) (domain or fragment, S. cerevisiae, UniProt Q04272 101-221, looked up)
chain: QFINGLKNGNEILKKLNKEFSNVDELMDDVQDQIAYQNEINETLSRSLVGTSNYEDDLDKELDALESELNPEKMNNAKVANMPSTEGLPSLPQGEQTEQKEREEFATEERSDTKEPLALLS
With B2, the binding result in the assay with Vps4^E233Q [2] is “binds”.

B3: GST-Did2 (natural protein, S. cerevisiae, UniProt P69771 1-204, looked up)
chain: MSRNSAAGLENTLFQLKFTSKQLQKQANKASKEEKQETNKLKRALNENEDISRIYASNAIRKKNERLQLLKLASRVDSVASRVQTAVTMRQVSASMGQVCKGMDKALQNMNLQQITMIMDKFEQQFEDLDTSVNVYEDMGVNSDAMLVDNDKVDELMSKVADENGMELKQSAKLDNVPEIKAKEVNVDDEKEDKLAQRLRALRG
With B3, the binding result with Ist1 was “binds”.

B4: GST-CT(Did2) (domain or fragment, S. cerevisiae, UniProt P69771 113-204, looked up)
chain: QQITMIMDKFEQQFEDLDTSVNVYEDMGVNSDAMLVDNDKVDELMSKVADENGMELKQSAKLDNVPEIKAKEVNVDDEKEDKLAQRLRALRG
Consider B4, for which the binding result with Ist1 is on record as “binds”.
